Experimental findings from article PMC9889268 are described below.

This assay deals with wild-type ClbP (Escherichia coli CFT073) (UniProt Q0P7K6). As to the kind of experiment: cryo-EM structure; single-particle cryo-EM of detergent-solubilised ClbP; 10 mM HEPES pH 7.3, 200 mM NaCl, 0.06% GDN; 3.5 mg/ml; C2 symmetry imposed.

Broadly, the stoichiometry N is a count of units in the complex or per binding partner. “wild-type ClbP (from UniProt Q0P7K6 1-504) (enzyme)” gave a stoichiometry N of 2.
